B1: Azoarcus group I ribozyme (parent)
chain: GUGCCUUGCGCCGGGAAACCACGCAAGGGAUGGUGUCAAAUUCGGCGAAACCUAAGCGCCCGCCCGGGCGUAUGGCAACGCCGAGCCAAGCUUCGGCGCCUGCGCCGAUGAAGGUGUAGAGACUAGACGGCACCCACCUAAGGCAAACGCUAUGGUGAAGGCAUAGUCCAGGGAGUGGCGAAAGUCACACAAACCGG

Variants of: B1
Assay: reverse-splicing fitness (ratio to wild type); higher = more active; in vitro selection; Mg2+ level not given
Outline: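 An in vitro group I ribozyme library with randomized positions was T7-transcribed and gel-purified. In triplicate, 10 pmol RNA in EPPS pH 7.5 was reacted with 50 pmoles of a 30-nt RNA substrate for 1 h at 37 °C across several added MgCl2 levels (1–48 mM), then stopped with EDTA. Products were reverse transcribed from a substrate-complementary primer, PCR-amplified and sequenced (HiSeq 4000). Fitness is a variant's read proportion after selection over that before, normalised to wild type.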
With C82U A111C A120U A145U C150G C169U U176A the reverse-splicing fitness was 0.00227.
With C82U A111C A120U A145U C150G C169U U176C the reverse-splicing fitness was 0.00264.
C82U A111C A120U A145U C150G C169U U176G gave a reverse-splicing fitness of 0.0025.
C82U A111C A120U A145G C150G C169A gave a reverse-splicing fitness of 0.00772.
Variant C82U A111C A120U A145G C150G C169G has a reverse-splicing fitness of 0.00651.
Variant C82U A111C A120U A145G C150G C169U has a reverse-splicing fitness of 0.0067.
C82U A111C A145G C150U C169U U176C showed a reverse-splicing fitness of 0.0121.
C82U A111C A145G C150U C169U U176G gave a reverse-splicing fitness of 0.00645.
C82U A111C A145G C150U C169U U176A gave a reverse-splicing fitness of 0.0144.
Work on C82U A111C A145C C150G C169U U176G yielded a reverse-splicing fitness of 0.00606.
In the case of C82U A111C A145C C150G C169U U176C, the reverse-splicing fitness is reported as 0.0106.
C82U A111C A145C C150G C169U U176A showed a reverse-splicing fitness of 0.00919.
With C82U A111C A120U C150U C169G U176C the reverse-splicing fitness was 0.00314.
C82U A111C A120U C150U C169G U176G gave a reverse-splicing fitness of 0.00228.
Work on C82U A111C A120U C150U C169G U176A yielded a reverse-splicing fitness of 0.00387.
For C82U A111C A120U A145U C150U C169U U176G, the reverse-splicing fitness was 0.00223.
In the case of C82U A111C A120U A145U C150U C169U U176C, the reverse-splicing fitness is reported as 0.003.
With C82U A111C A120U A145U C150U C169U U176A the reverse-splicing fitness was 0.00267.
With C82U A111C A120U C150U U176A the reverse-splicing fitness was 0.00642.
C82U A111C A120U C150U U176C gave a reverse-splicing fitness of 0.00907.
C82U A111C A120U C150U U176G gave a reverse-splicing fitness of 0.00332.
C82U A111C A145C C169G U176G gave a reverse-splicing fitness of 0.00669.
With C82U A111C A145C C169G U176C the reverse-splicing fitness was 0.0207.
With C82U A111C A145C C169G U176A the reverse-splicing fitness was 0.0274.
Work on C82U A111C A145C C150U U176A yielded a reverse-splicing fitness of 0.0229.
Variant C82U A111C A145C C150U U176C has a reverse-splicing fitness of 0.0358.
Work on C82U A111C A145C C150U U176G yielded a reverse-splicing fitness of 0.00938.
Variant C82U A111C A120U A145U C150U C169U has a reverse-splicing fitness of 0.0037.
For C82U A111C A120U A145U C150U C169A, the reverse-splicing fitness was 0.00252.
C82U A111C A120U A145U C150U C169G gave a reverse-splicing fitness of 0.00301.
With C82U A111C A120U A145U C150U U176G the reverse-splicing fitness was 0.0027.
C82U A111C A120U A145U C150U U176C showed a reverse-splicing fitness of 0.0089.
Variant C82U A111C A120U A145U C150U U176A has a reverse-splicing fitness of 0.00562.
Variant C82U A111C A120U C150G C169G U176G has a reverse-splicing fitness of 0.00254.
For C82U A111C A120U C150G C169G U176A, the reverse-splicing fitness was 0.00425.
In the case of C82U A111C A120U C150G C169G U176C, the reverse-splicing fitness is reported as 0.00317.
For C82U A111C A145G C169G U176C, the reverse-splicing fitness was 0.0306.
C82U A111C A145G C169G U176G gave a reverse-splicing fitness of 0.00682.
C82U A111C A145G C169G U176A showed a reverse-splicing fitness of 0.0236.
For C82U A111C A120U C169G, the reverse-splicing fitness was 0.00401.
C82U A111C A120U C169U gave a reverse-splicing fitness of 0.00529.
For C82U A111C A120U C169A, the reverse-splicing fitness was 0.00322.
With C82U A111C A120U C150U C169A U176G the reverse-splicing fitness was 0.00291.
C82U A111C A120U C150U C169A U176C showed a reverse-splicing fitness of 0.00372.
For C82U A111C A120U C150U C169A U176A, the reverse-splicing fitness was 0.00486.
Work on C82U A111C A145G C150G C169G U176C yielded a reverse-splicing fitness of 0.0117.
C82U A111C A145G C150G C169G U176G showed a reverse-splicing fitness of 0.00571.
C82U A111C A145G C150G C169G U176A gave a reverse-splicing fitness of 0.00912.
Variant C82U A111C A145C C150G C169G U176A has a reverse-splicing fitness of 0.00798.
C82U A111C A145C C150G C169G U176C showed a reverse-splicing fitness of 0.00811.
Work on C82U A111C A145C C150G C169G U176G yielded a reverse-splicing fitness of 0.0058.
With C82U A111C A145G C169G the reverse-splicing fitness was 0.00955.
In the case of C82U A111C A145G C169U, the reverse-splicing fitness is reported as 0.012.
With C82U A111C A145G C169A the reverse-splicing fitness was 0.00937.
C82U A111C A120U A145G C150A C169U U176C gave a reverse-splicing fitness of 0.00385.
Variant C82U A111C A120U A145G C150A C169U U176G has a reverse-splicing fitness of 0.00293.
Variant C82U A111C A120U A145G C150A C169U U176A has a reverse-splicing fitness of 0.00566.
For C82U A111C A120U C150A C169A U176C, the reverse-splicing fitness was 0.00354.
For C82U A111C A120U C150A C169A U176A, the reverse-splicing fitness was 0.00438.
With C82U A111C A120U C150A C169A U176G the reverse-splicing fitness was 0.00303.
Work on C82U A111C A145G C150G C169U U176A yielded a reverse-splicing fitness of 0.0102.
For C82U A111C A145G C150G C169U U176C, the reverse-splicing fitness was 0.00994.
C82U A111C A145G C150G C169U U176G gave a reverse-splicing fitness of 0.0073.
Work on C82U A111C A145G C150G yielded a reverse-splicing fitness of 0.0275.
For C82U A111C A145G C150A, the reverse-splicing fitness was 0.0325.
With C82U A111C A145G C150U the reverse-splicing fitness was 0.183.
C82U A111C A120U C150G U176A showed a reverse-splicing fitness of 0.0035.
For C82U A111C A120U C150G U176G, the reverse-splicing fitness was 0.00291.
Variant C82U A111C A120U C150G U176C has a reverse-splicing fitness of 0.00605.
Work on C82U A111C A145U C150G yielded a reverse-splicing fitness of 0.0215.
In the case of C82U A111C A145U C150A, the reverse-splicing fitness is reported as 0.0231.
For C82U A111C A145U C150A C169U U176C, the reverse-splicing fitness was 0.013.
C82U A111C A145U C150A C169U U176G showed a reverse-splicing fitness of 0.00805.
C82U A111C A145U C150A C169U U176A showed a reverse-splicing fitness of 0.0193.
Variant C82U A111C A120U A145G C150U U176A has a reverse-splicing fitness of 0.00854.
Work on C82U A111C A120U A145G C150U U176G yielded a reverse-splicing fitness of 0.00287.
For C82U A111C A120U A145G C150U U176C, the reverse-splicing fitness was 0.0107.
Variant C82U A111C A145U C150A C169A U176G has a reverse-splicing fitness of 0.00756.
In the case of C82U A111C A145U C150A C169A U176A, the reverse-splicing fitness is reported as 0.0124.
For C82U A111C A145U C150A C169A U176C, the reverse-splicing fitness was 0.0128.
Work on C82U A111C A120U A145G C150A C169U yielded a reverse-splicing fitness of 0.0043.
With C82U A111C A145C C150U C169A U176A the reverse-splicing fitness was 0.011.
C82U A111C A145C C150U C169A U176G gave a reverse-splicing fitness of 0.00687.
For C82U A111C A145C C150U C169A U176C, the reverse-splicing fitness was 0.01.
